Source: patent US20210032330A1 (PHANES THERAPEUTICS, published 2021)
Residue numbers refer to the chain shown, from its start. Read-outs that look alike come from different tables or passages of the source.

Key:
[1] = target: T1, human T-cell immunoglobulin and mucin-domain containing molecule 3 (TIM-3) (human, UniProt Q8TDQ0 22-200, limits assumed); experiment: competition ELISA: pre-equilibrated mixture of mAb and human TIM3(ECD)-huFc on plate-coated phosphatidylserine (PtdSer, a lipid), anti-huFc-HRP detection, % inhibition
T1 construct: also called Human TIM-3
Procedure: (§1) ELISA plates were coated with PtdSer or PtdChol, washed and incubated with a pre-equilibrated mixture of purified antibodies at various concentrations and TIM3(ECD)-huFc. The plates were washed and then the signal was detected by incubation with HRP-coupled anti-huFc secondary antibody and then a HRP substrate. TIM-3 binding to PtdSer was used as 100% signal and TIM-3 binding to PtdChol as zero (background) to calculate percent of inhibition by a given mAb.
(§2) To determine the effect of anti-TIM-3 antibodies on the interaction of TIM-3 with phosphatidylserine (PtdSer), 384-well ELISA plates were coated with PtdSer or phosphatidylcholine (PtdChol) at room temperature. The wells were washed using PBS supplemented with 0.1% Tween-20 and then blocked using PBS supplemented with 2% bovine serum albumin (BSA). […] The plates were washed and then incubated with HRP-coupled anti-huFc secondary antibody. Plates were washed, incubated with an HRP substrate, and read using a POLARstar Omega Microplate (BMG LABTECH). The assay was performed in triplicate.

[2] = target: T1, human T-cell immunoglobulin and …; experiment: FACS on HEK293 cells transiently transfected with human TIM-3 (HuTIM-3 cells) against parental HEK293 cells (CTL cells), anti-mouse AlexaFluor488 secondary, MFI
Procedure: The binding of purified anti-TIM-3 mAbs to HEK293 cells transiently transfected with human TIM-3 (labeled as “HuTIM-3 cells”) or parental HEK293 cells (labeled as “CTL cells”) was tested by FACS at 3 different concentrations. An anti-mouse secondary Ab AlexaFluor488 was used for detection.
A human TIM-3-expressing plasmid was made and transiently transfected into HEK293T cells. After approximately 48 hours, cells were transferred to a 384-well V-bottom plate. Cells were washed with ice-cold FACS buffer (PBS supplemented with 1% BSA) and incubated with purified mAbs with gentle agitation at 4° C. for 45 minutes. The cells were washed with FACS buffer and incubated with an anti-mouse secondary Ab AlexaFluor488. The cells were washed and analyzed by FACS.

[3] = target: T1, human T-cell immunoglobulin and …; experiment: ELISA, recombinant human TIM-3(ECD)-6His coated on the plate, anti-human IgG-HRP detection, absorbance at 450 nm
Procedure: (§3) Recombinant human TIM-3(ECD)-6His in carbonate coating buffer was coated on an ELISA plate at 4° C. overnight.

[4] = target: T1, human T-cell immunoglobulin and …; experiment: as above; remark: listed apart in the source
Procedure: as §3

[5] = target: T1, human T-cell immunoglobulin and …; experiment: competition ELISA: pre-equilibrated mixture of mAb and human TIM3(ECD)-huFc on plate-coated phosphatidylserine (PtdSer, a lipid), anti-huFc-HRP detection, % inhibition; remark: listed apart in the source
Procedure: as §1, §2

[6] = target: T1, human T-cell immunoglobulin and …; experiment: as above; remark: listed apart in the source
Procedure: as §1, §2

[7] = target: T1, human T-cell immunoglobulin and …; experiment: BLI (OCTET Red96), mAb on anti-mouse Fc biosensor, antigen in solution, 1:1 model
Procedure: Binding experiments were performed on OCTET Red96 at 25° C. Antibodies were loaded onto Anti-Mouse Fc (AMC) biosensors. Loaded sensors were dipped into serial dilutions of antigen. Kinetic constants were calculated using a monovalent (1:1) model. The assay buffer was PBS supplemented with 0.1% BSA, 500 mM NaCl, 0.02% Tween-20, pH 7.2.

B1: 18-O22-A (antibody, V domains shown)
VH: EVQLQQSGPELVKPGASVKVSCKASGYTFTSYVMHWVKQKPGQGLEWIGYINPYNDVTKYNEKFKGKATLTSDKSSSTAYMELSSLTSEDSAVYYCARSSDYDDGHWYFDVWGAGTTVTVSS
VL: DIVLTQSPASLAVSLGQRATISCKASQSVDYDGESYMNWYQQKPGQPPKLLIYVASNLESGIPVRFSGSGSGTDFTLNIHPVEEEDAATYYCQQSNEDPTWTFGGGTKLEIK
notes: also called anti-TIM-3 monoclonal antibody 18-O22-A
- binding result [1]: binds

B2: 5-C11-A (antibody, V domains shown)
VH: EVQLVESGGGLVKPGGSLKLSCAASGFTFSDFYMYWVRQTPEKRLEWVATISDGGSYTYYPDSVKGRFTISRDNAKNNLYLQMSSLKSEDTAMYYCASGYYYGSDYVMDYWGQGTSVTVSS
VL: DIVMSQSPSSLAVSAGEKVTMSCKSSQSLLNSRTRKNYLAWYQQKPGQSPKLLIYWASTRESGVPDRFTGSGSGTDFTLTISSVQADDLAVYYCKQSYNLLTFGAGTKLELK
notes: also called anti-TIM-3 monoclonal antibody 5-C11-A
- binding result [2]: binds

B3: 7-P15-A (antibody, V domains shown)
VH: QIQLVQSGPELKKPGETVKISCKASGYTFTNYGMNWVKQAPGKGLKWMGWINTYTGEPTYADDFKGRFAFSLETSASTAYLQINNLKNEDTATYFCARDLMDYWGQGTTLTVSS
VL: DVVMTQTPLSLPVSLGDQASISCRSSQSLVHSNGNTYLHWYLQKPGQSPKLLIYKVSNRFSGVPDRFSGSGSGTDFTLKITRVEAEDLGVYFCSQSIHVPYTFGGGTKLEIK
notes: also called anti-TIM-3 monoclonal antibody 7-P15-A
- binding result [1]: binds

B4: Chimeric (antibody, V domains shown)
VH: QVQLQQSGAELVKPGASVKLSCKASGYTFTSSDINWVRQRPEQGLEWIGWIFPGDGSTKYNEKFKGKATLTTDKSSSTAYMQLSRLTSEDSAVYFCARGLDYWGQGTTLTVSS
VL: DIKMTQSPSSMYASLGERVTITCKASQDINSYLGWFQQKPGKSPKTLIYRADRLVDGVPSRFSGSGSGQDYSLTISSLEYEDMGIYYCLQYDEFPLTFGAGTKLELK
notes: detected with anti-human IgG-HRP; also called chimeric version of anti-TIM-3 mAb 16-K5-A
- EC50 (read off the curve) [3]: ~0.2 nM
- EC50 (read off the curve) [4]: ~0.09 nM

B5: 2-K2-A (antibody, V domains shown)
VH: QVQLQQSGAELAKPGASVKMSCKASGYTFTTYWMHWVKQRPGQGLEWIGYINPSTGYTEYNQKFKDKSTLTADKSSSTAYMQLSSLTSEDSAVYYCANDHEGGFAYWGQGTLVTVSA
VL: DILMTQSPSSMSVSLGDTVSITCHASQGISSNIGWLQQKPGKSFKGLIYHGTNLEDGVPSRFSGSGSGADYSLTISSLESEDFADYYCVQYAQFPFTFGSGTKLEIK
notes: also called anti-TIM-3 monoclonal antibody 2-K2-A
- binding result [2]: binds

B6: 12-G18-A (antibody, V domains shown)
VH: DVQLQESGPGLVKPSQSLSLTCTVTGYSITSDYAWNWIRQFPGNKLEWMGYISYSGSTSYNPSLKSRISITRDTSKNQFFLQLNSVTIGDTATYYCASNYRYDYWFFGVWGAGTTVTVSS
VL: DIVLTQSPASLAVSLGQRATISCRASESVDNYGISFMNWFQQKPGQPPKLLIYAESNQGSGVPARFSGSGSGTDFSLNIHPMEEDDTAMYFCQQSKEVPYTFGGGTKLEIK
notes: also called anti-TIM-3 monoclonal antibody 12-G18-A
- IC50 (read off the curve) [5]: ~6 nM

B7: H5L5 (antibody, V domains shown)
VH: QVQLQESGPGLVKPSETLSLTCTASGYTFTSSDINWVRQPPGKGLEWIGWIFPGDGSTKYNPSLKSRATLSTDKSKNQASLNLDSVSAADTAIYFCARGLDYWGKGSTVTVSS
VL: DIQMTQSPSSLSASVGDRVTITCKASQDINSYLGWFQQKPGKAPKTLIYRADRLVDGVPSRFSGSGSGQDYTFTISSLQPEDIATYYCLQYDEFPLTFGPGTKVDIK
notes: also called humanized version of anti-TIM-3 mAb 16-K5-A, VH H5 with VL L5
- EC50 (read off the curve) [3]: ~0.2 nM

B8: H7L5 (antibody, V domains shown)
VH: B7 VH with T23K, D84S, S87T, I93V, S107T
VL: B7 VL
notes: also called humanized version of anti-TIM-3 mAb 16-K5-A, VH H7 with VL L5
- EC50 (read off the curve) [3]: ~0.1 nM

B9: 12-M11-A (antibody, V domains shown)
VH: QVQLQQSGAELAKPGASVKMSCKASGYFTSYWMHWVKQRPGQGLEWIGYINPITGYTEYNQKFKDKATLTADKSSSTAYMQLSRLTSEDSAVYYCARGVENFDYLYAMDYWGQGASVTVSS
VL: QIVLTQSPAIMSASPGEKVTMTCSASSSISYMHWYQQKPGTSPKRWIYDTSKLASGVPTRFNGSGSGTSYSLTISSMEAEDAATYYCHQRSSYRTFGGGTKLEIK
notes: also called anti-TIM-3 monoclonal antibody 12-M11-A
- IC50 (read off the curve) [6]: ~7 nM

B10: 19-A14-A (antibody, V domains shown)
VH: DVQLQGSGPGLVKPSQSLSLTCTVTGYSITSDYAWNWIRQFPGNILEWMGYISYSGSTSYNPSLKSRISITRDTSKNQFFLQLNSVTTEDTATYYCARDGRYDYYAMDYWGQGTSVTVSS
VL: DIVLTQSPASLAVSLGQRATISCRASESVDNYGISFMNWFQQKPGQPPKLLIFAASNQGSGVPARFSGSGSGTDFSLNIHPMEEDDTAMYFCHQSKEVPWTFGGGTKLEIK
notes: also called anti-TIM-3 monoclonal antibody 19-A14-A
- IC50 (read off the curve) [5]: ~7 nM

B11: anti-TIM-3 monoclonal antibody 5-K4-A (antibody, V domains shown)
VH: EVQLQQSGPELVKTGASVKISCKASGYSFTAYYIHWVKQSHGKSLEWIGHISCFNGATSYNQKFKGKATFTVDTSSSTAYMQFNSLTSEDSAVYYCARRGDFDRPEFAYWGQGTLVTVSA
VL: DIVLTQSPASLAVSLGQRATISCRASESVEYYGTSLMQWYQQKPGQPPKLLIYAASNVESGVPARFSGSGSGTDFSLNIHPVEEDDIAMYFCQQSRKVPWTFGGGTKLEIK
notes: Mouse hybridoma mAb; captured on anti-mouse Fc biosensors
- Kd [7]: 1.8 nM
- IC50 (read off the curve) [6]: ~6 nM
